For series [1], the target named is E6AP peptide (Homo sapiens) (UniProt Q05086). The series is described as follows: SPR. Conditions: cited from earlier work.
For series [2], the target named is HPV11 E6 4C/4S separated from the MBP tag (human papillomavirus type 11) (UniProt P04019). The series is described as follows: SEC.
Series [3] concerns the target HPV11 MBP-E6 4C/4S (human papillomavirus type 11) (UniProt P04019). Kind of series: SEC.
Series [4] concerns the molecule itself. The series is described as follows: SEC.

Several values for one entry are separate records, joined by “and”; a condition that tells them apart may be missing. Identical values can stand only once.

Sequence of E6AP peptide (Homo sapiens) (Q05086 whole entry): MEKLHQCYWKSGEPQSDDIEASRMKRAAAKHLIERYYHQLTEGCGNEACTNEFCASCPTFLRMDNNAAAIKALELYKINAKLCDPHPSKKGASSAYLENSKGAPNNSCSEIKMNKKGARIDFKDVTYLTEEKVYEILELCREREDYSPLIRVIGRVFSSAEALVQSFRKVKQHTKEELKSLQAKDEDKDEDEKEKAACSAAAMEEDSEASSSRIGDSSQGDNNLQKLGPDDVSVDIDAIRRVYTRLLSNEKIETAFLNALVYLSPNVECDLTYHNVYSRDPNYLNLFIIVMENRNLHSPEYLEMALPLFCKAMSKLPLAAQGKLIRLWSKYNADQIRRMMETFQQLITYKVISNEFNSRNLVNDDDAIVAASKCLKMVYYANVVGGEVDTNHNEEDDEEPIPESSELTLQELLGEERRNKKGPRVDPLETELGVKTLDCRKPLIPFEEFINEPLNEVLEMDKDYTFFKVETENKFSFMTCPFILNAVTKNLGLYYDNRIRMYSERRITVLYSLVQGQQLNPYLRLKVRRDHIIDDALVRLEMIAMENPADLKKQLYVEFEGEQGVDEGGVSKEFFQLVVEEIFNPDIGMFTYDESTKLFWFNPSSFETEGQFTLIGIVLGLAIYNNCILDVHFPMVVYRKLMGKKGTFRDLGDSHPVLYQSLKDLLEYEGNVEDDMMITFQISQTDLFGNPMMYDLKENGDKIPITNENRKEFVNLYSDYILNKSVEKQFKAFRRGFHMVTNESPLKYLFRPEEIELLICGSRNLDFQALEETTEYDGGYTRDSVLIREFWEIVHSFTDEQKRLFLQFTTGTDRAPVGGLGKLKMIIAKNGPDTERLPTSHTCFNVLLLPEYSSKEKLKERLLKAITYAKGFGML

Consider HPV18 E6 (from UniProt P06463), for which, in series [1], the dissociation constant (Kd) is 30 µM.
For the molecule “HPV11 E6 4C/4S separated from the MBP tag (from UniProt P04019 1-150) (natural protein)”, in series [2], the stoichiometry N is 3 and 2.
As to “HPV11 MBP-E6 4C/4S (from UniProt P04019 1-150) (natural protein)”, in series [3], the stoichiometry N is 2 and 3.

B1: wild-type BPV1 MBP-E6 (natural protein)
chain: MDLKPFARTNPFSGLDCLWCREPLTEVDAFRCMVKDFHVVIREGCRYGACTICLENCLATERRLWQGVPVTGEEAELLHGKTLDRLCIRCCYCGGKLTKNEKHRHVLFNEPFCKTRANIIRGRCYDCCRHGSRSKYP
In the case of B1, the binding result in series [4] was “binds”.

B2: wild-type HPV11 MBP-E6 (natural protein)
chain: MESKDASTSATSIDQLCKTFNLSLHTLQIQCVFCRNALTTAEIYAYAYKNLKVVWRDNFPFAACACCLELQGKINQYRHFNYAAYAPTVEEETNEDILKVLIRCYLCHKPLCEIEKLKHILGKARFIKLNNQWKGRCLHCWTTCMEDLLP
For B2, the “stoichiometry N” value in series [4] was 2.

The record behind these values is publication PMC3900769 (Journal of molecular biology, 2009).
